From patent publication US20210246218A1 (LYVGEN BIOPHARMA SUZHOU, published 2021) come the findings set out here.

For test [1], the target named is T1, CD137 protein (UniProt Q07011 24-186, limits assumed).
T1 construct: also called CD137 antigen; CD137 receptor
In words: BLI (Octet Red 96), antibody on anti-human Fc sensors, CD137 protein in solution, 1:1 model. As to the method: (§1) The chimeric and humanized antibodies were tested in an antigen binding assay on Octet Red 96 to estimate binding kinetics. Antibodies were loaded onto anti-human Fc (AHC) biosensors. Loaded sensors were dipped into a serial dilution of CD137 protein (300 nM, 1:3 down, 7 points) in assay buffer (PBS with 0.1% BSA, 0.02% Tween-20 (pH 7.2)).
(Biolayer interferometry detects binding as a change in optical thickness at a sensor tip.)

In test [2] the target is T1, CD137 protein. Described as above. As to the method:
KD Measurements of CD137 Antigen Binding were made according to the protocol described in Example 2 above. The chimeric and humanized antibodies were tested in an antigen-binding assay on Octet Red 96 to estimate binding kinetics. Antibodies were loaded onto anti-human Fc (AHC) biosensors. Loaded sensors were dipped into a serial dilution of CD137 protein (300 nM, 1:3 down, 7 points) in assay buffer (PBS with 0.1% BSA, 0.02% Tween-20 (pH 7.2)).
The source holds these as a separate data set.

The target in test [3] is T1, CD137 protein. Put plainly: competition ELISA with CD137L: CD137 receptor coated, antibody titrated, CD137L added; A450-A620 falls with the antibody concentration (midpoint of an inhibition curve, called EC50 in the sheet's table). As to the method: CD137 receptor was diluted in DPBS to 1 μg/mL, and then coated onto an ELISA plate (Corning, Catalog number: 9018, high binding) with a volume of 50 μL (0.05 μg) per well, and incubated at 4° C. overnight. The plate was decanted and washed once; assay diluent was added 200 μL/well. […] The diluted CD137 receptor was added to the assay plate, 50 μL/well, in duplicate. The plate was incubated one hour at room temperature. […] The plate was incubated one hour at room temperature and then washed three times with PBST. Goat anti-human IgG-H+L HRP conjugated at 1:100,000 20 dilution was added to the plate at 100 μL/well. The plate was then incubated one hour at room temperature followed by washing with PBST four times. The TMB substrate solution was added at 100 μL/well. The color was allowed to develop for 15 minutes, and was stopped with 100 μL/well 2N H2SO4. Absorbance at 450 nm and 620 nm was determined by a Tecan F200 Pro reader.
(In general: In an ELISA, binding on a coated surface is turned into a signal by an enzyme label.)

The target of test [4] is T1, CD137 protein. In words: BLI (Octet Red 96); reference apparently the parental chimeric antibody 371. How it is done: as §1

Where two headings read alike, the source gives them in different places.

By Kd is commonly meant the equilibrium constant for the complex coming apart. A high value points to a looser complex. As a reminder, the koff is the rate constant with which the complex falls apart. The low end stands for a long-lived complex, the high end for a short-lived complex. By kon is commonly meant a measure of how fast the partners come together. The low end stands for slower complex formation, the high end for faster complex formation. The term EC50 denotes the concentration that produces a half-maximal response.

B1: reference antibody 371 (murine/human chimeric) (antibody, V domains shown)
VH: QVQLQQSGAELVRPGASVTLSCKASGYTFAGFEMHWIKQTPVHGLGWIGAIDPKTGGTDYNQKFKDKALLTADKSSNTAYMELRSLTSEDSAVYYCTRDLGYFDVWGTGTTVTVSS
VL: DIQMTQTTSSLSASLGDRVTISCRASQDIRSNLNWYQQKPDGTVKLLIYYTSRLHSGVPSRFSGSGSGTDYSLTISNLEQEDIATYFCQQSEKLPRTFGGGTKLEIRR
In the test with CD137 protein [1], B1 came in with a dissociation constant (Kd) of 3.9 nM, a koff of 0.0011 s⁻¹ and a kon of 280000 M⁻¹ s⁻¹. In the test with CD137 protein [2], the Kd was determined as 3.9 nM, the koff amounted to 0.0011 s⁻¹ and the kon came out at 280000 M⁻¹ s⁻¹. In addition, it took 0.101 µg/mL to reach a half-maximal effect with CD137 protein [3] (EC50).

B2: humanized anti-CD137 antibody clone 3715 (IgG4 S228P/kappa) (antibody, V domains shown)
VH: QVQLVQSGAEVVKPGASVKVSCKASGYTFAGFEMHWVRQAPGQGLGWMGAIDPKTGGTDYNQKFKDRVTMTADTSISTAYMELSRLRSDDTAVYYCTRDLGYFDVWGQGTLVTVSS
VL: DIQMTQSPSSLSASVGDRVTITCRASQDIRSNLNWYQQKPGGAVKLLIYYTSRLHSGVPSRFSGSGSGTDYTLTISSLQPEDFATYFCQQSEKLPRTFGGGTKVEIRR
Turning to B2, in the test with CD137 protein [2], binding was characterised by a dissociation constant (Kd) of 5.9 nM, the koff came to 0.0018 s⁻¹ and the kon stood at 310000 M⁻¹ s⁻¹.

B3: humanized anti-CD137 antibody clone 3712 (IgG4 S228P/kappa) (antibody, V domains shown)
VH: QVQLVQSGAEVKKPGASVKVSCKASGYTFAGFEMHWVRQAPGQGLEWMGAIDPKTGGTDYNQKFKDRVTMTRDTSISTAYMELSRLRSDDTAVYYCARDLGYFDVWGQGTLVTVSS
VL: DIQMTQSPSSLSASVGDRVTITCRASQDIRSNLNWYQQKPGGAVKLLIYYTSRLHSGVPSRFSGSGSGTDYTLTISSLQPEDFATYFCQQSEKLPRTFGGGTKVEIRR
For the molecule B3, the fold higher off-rate in the test with CD137 protein [4] stood at 3 fold. In the test with CD137 protein [1], binding was characterised by a dissociation constant (Kd) of 10 nM, the koff amounted to 0.0031 s⁻¹ and the kon was found to be 310000 M⁻¹ s⁻¹. In addition, in the test with CD137 protein [2], binding was put at a Kd of 10 nM, the dissociation rate constant (koff) turned out to be 0.0031 s⁻¹ and the kon is 310000 M⁻¹ s⁻¹.

B4: humanized anti-CD137 antibody clone 3714 (IgG4 S228P/kappa) (antibody, V domains shown)
VH: QVQLVQSGAEVVKPGASVKVSCKASGYTFAGFEMHWVRQAPGQGLGWMGAIDPKTGGTDYNQKFKDRVTMTADTSISTAYMELSRLRSDDTAVYYCTRDLGYFDVWGQGTLVTVSS
VL: DIQMTQSPSSLSASVGDRVTITCRASQDIRSNLNWYQQKPGKAPKLLIYYTSRLHSGVPSRFSGSGSGTDFTLTISSLQPEDFATYYCQQSEKLPRTFGGGTKVEIRR
B4: in the test with CD137 protein [2], the koff was less than 1e-07 s⁻¹ and the kon is 130000 M⁻¹ s⁻¹.

B5: humanized anti-CD137 antibody clone 3716 (IgG4 S228P/kappa) (antibody, V domains shown)
VH: QVQLVQSGAEVVKPGASVKVSCKASGYTFAGFEMHWVRQAPGQGLGWMGAIDPKTGGTDYNQKFKDRVTMTADTSISTAYMELSRLRSDDTAVYYCTRDLGYFDVWGQGTLVTVSS
VL: DIQMTQSPSSLSASVGDRVTITCRASQDIRSNLNWYQQKPGGAVKLLIYYTSRLHSGVPSRFSGSGSGTDYTLTISSLQPEDFATYFCQQSEKLPRTFGGGTKLEIRR
In the test with CD137 protein [2], B5 had a Kd of 7 nM, a koff of 0.0022 s⁻¹ and a kon of 320000 M⁻¹ s⁻¹.

B6: humanized anti-CD137 antibody clone 3717 (IgG4 S228P/kappa) (antibody, V domains shown)
VH: QVQLVQSGAEVVKPGASVKLSCKASGYTFAGFEMHWIRQAPGQGLGWIGAIDPKTGGTDYNQKFKDRATLTADTSISTAYMELSRLRSDDTAVYYCTRDLGYFDVWGQGTLVTVSS
VL: DIQMTQSPSSLSASVGDRVTITCRASQDIRSNLNWYQQKPGKAPKLLIYYTSRLHSGVPSRFSGSGSGTDFTLTISSLQPEDFATYYCQQSEKLPRTFGGGTKVEIRR
With B6, in the test with CD137 protein [2], the Kd is 2.3 nM, the koff was 0.00034 s⁻¹ and the kon came to 150000 M⁻¹ s⁻¹.

B7: humanized anti-CD137 antibody clone 3719 (IgG4 S228P/kappa) (antibody, V domains shown)
VH: QVQLVQSGAEVVKPGASVKLSCKASGYTFAGFEMHWIRQAPGQGLGWIGAIDPKTGGTDYNQKFKDRATLTADTSISTAYMELSRLRSDDTAVYYCTRDLGYFDVWGQGTLVTVSS
VL: DIQMTQSPSSLSASVGDRVTITCRASQDIRSNLNWYQQKPGGAVKLLIYYTSRLHSGVPSRFSGSGSGTDYTLTISSLQPEDFATYFCQQSEKLPRTFGGGTKLEIRR
Turning to B7, in the test with CD137 protein [2], binding was put at a Kd of 8.5 nM, the koff worked out at 0.0026 s⁻¹ and the association rate constant (kon) was 310000 M⁻¹ s⁻¹.

B8: humanized anti-CD137 antibody clone 3713 (IgG4 S228P/kappa) (antibody, V domains shown)
VH: QVQLVQSGAEVKKPGASVKVSCKASGYTFAGFEMHWVRQAPGQGLEWMGAIDPKTGGTDYNQKFKDRVTMTRDTSISTAYMELSRLRSDDTAVYYCARDLGYFDVWGQGTLVTVSS
VL: DIQMTQSPSSLSASVGDRVTITCRASQDIRSNLNWYQQKPGGAVKLLIYYTSRLHSGVPSRFSGSGSGTDYTLTISSLQPEDFATYFCQQSEKLPRTFGGGTKLEIRR
For B8, in the test with CD137 protein [2], the Kd worked out at 3.8 nM, the koff stood at 0.0011 s⁻¹ and the kon came to 290000 M⁻¹ s⁻¹.

B9: humanized anti-CD137 antibody clone 3711 (IgG4 S228P/kappa) (antibody, V domains shown)
VH: QVQLVQSGAEVKKPGASVKVSCKASGYTFAGFEMHWVRQAPGQGLEWMGAIDPKTGGTDYNQKFKDRVTMTRDTSISTAYMELSRLRSDDTAVYYCARDLGYFDVWGQGTLVTVSS
VL: DIQMTQSPSSLSASVGDRVTITCRASQDIRSNLNWYQQKPGKAPKLLIYYTSRLHSGVPSRFSGSGSGTDFTLTISSLQPEDFATYYCQQSEKLPRTFGGGTKVEIRR
On to B9, for which, in the test with CD137 protein [1], the Kd worked out at 2.4 nM, the koff worked out at 0.00046 s⁻¹ and the kon stood at 190000 M⁻¹ s⁻¹. Moreover, in the test with CD137 protein [2], the affinity, expressed as Kd, was 2.5 nM; the koff was determined as 0.00046 s⁻¹; the kon was determined as 190000 M⁻¹ s⁻¹.

B10: humanized anti-CD137 antibody clone 3718 (IgG4 S228P/kappa) (antibody, V domains shown)
VH: QVQLVQSGAEVVKPGASVKLSCKASGYTFAGFEMHWIRQAPGQGLGWIGAIDPKTGGTDYNQKFKDRATLTADTSISTAYMELSRLRSDDTAVYYCTRDLGYFDVWGQGTLVTVSS
VL: DIQMTQSPSSLSASVGDRVTITCRASQDIRSNLNWYQQKPGGAVKLLIYYTSRLHSGVPSRFSGSGSGTDYTLTISSLQPEDFATYFCQQSEKLPRTFGGGTKVEIRR
In the test with CD137 protein [2], B10 returned a dissociation constant Kd of 8.3 nM, a koff of 0.0026 s⁻¹ and a kon of 310000 M⁻¹ s⁻¹.
